According to patent US20170226215A1 (SORRENTO THERAPEUTICS, published 2017):

Target: T1, recombinant human CD137/Fc (human, UniProt Q07011 24-186)
T1 construct: Coated on the ELISA plate at 2 µg/mL; not shown: Fc part
Test: ELISA, plate coated with recombinant human CD137/Fc at 2 µg/mL, antibody at about 1 µg/mL (single concentration), HRP anti-human lambda, OD 450 nm
Protocol: A Maxisorp plate was coated with recombinant human CD137/Fc or mouse CD137/Fc at 2 μg/mL at 4° C., overnight. The plate was blocked for 1 hour at room temperature, washed 3 times with PBS-Tween (PBST), then anti-CD137 antibodies (˜1 μg/mL) diluted in casein were added and incubated for 30 min with shaking. The plate was washed 3 times with PBST, horseradish peroxidase (HRP)-conjugated mouse anti-human Lambda (1:1000 in casein) was added, then 3,3′,5,5′-Tetramethylbenzidine (TMB) was added as substrate and developed about 5 min. 2M H₂SO₄ was used to stop the reaction and the OD was read at 450 nm.

binding result | Binder
binds | anti-CD137 antibody MB3 (antibody, V domains shown, IgG class, variant of D6) VH: QMQLVQSGAEVKKPGASVKVSCKASGYQMRGYYMHWVRQAPGQGLEWMGWINPNSGGTNYAQKFQGRVTITRDTSASTAYMELSSLRSEDTAVYYCAREGEAVGLDLDYWGQGTLVTVSS VL: SYELTQPPSVSVAPGKTARITCGGNNIGSKSVHWYQQKPGQAPVLVIYYDSDRPSGIPERFSGSNSGNTATLTISRVEAGDEADYYCQVWDSSSVVFGGGTQLTVL
binds | anti-CD137 antibody MSC8 (antibody, V domains shown, IgG class, variant of D6) VH: QMQLVQSGAEVKKPGASVKVSCKASGYNFGGYYMHWVRQAPGQGLEWMGWVNPKSGGTNYAQKFQGRVTITRDTSASTAYMELSSLRSEDTAVYYCAREGEAVGLDLDYWGQGTLVTVSS VL: SYELTQPPSVSVAPGKTARITCGGNNIGSKSVHWYQQKPGQAPVLVIYYDSDRPSGIPERFSGSNSGNTATLTISRVEAGDEADYYCQVWDSSSVVFGGGTQLTVL
binds | anti-CD137 antibody MB12 (antibody, V domains shown, IgG class, variant of D6) VH: QMQLVQSGAEVKKPGASVKVSCKASGYSLEGYYMHWVRQAPGQGLEWMGWINPNSGGTNYAQKFQGRVTITRDTSASTAYMELSSLRSEDTAVYYCAREGEAVGLDLDYWGQGTLVTVSS VL: SYELTQPPSVSVAPGKTARITCGGNNIGSKSVHWYQQKPGQAPVLVIYYDSDRPSGIPERFSGSNSGNTATLTISRVEAGDEADYYCQVWDSSSVVFGGGTQLTVL
